B1: TrfB transcriptional repressor protein (Escherichia coli), P03052 (parent)
chain: MKKRLTESQFQEAIQGLEVGQQTIEIARGVLVDGKPQATFATSLGLTRGAVSQAVHRVWAAFEDKNLPEGYARVTAVLPEHQAYIVRKWEADAKKKQETKR

Variants of: B1
Conditions: with korb2_ecolx korB

Row | effect of a mutation on the interaction | Variant
1 | decreasing interaction strength | Q82A
2 | disrupting interaction strength | V74A
3 | disrupting interaction strength | Y84A
4 | decreasing interaction strength | P68A
5 | disrupting interaction strength | L78A
